The text below walks through data of patent US20220412989A1, “COMPOSITIONS AND METHODS FOR DETECTING CELLS UNDERGOING FERROPTOSIS USING AN ANTIBODY” (THE TRUSTEES OF COLUMBIA UNIVERSITY IN THE CITY OF NEW YORK, priority 2020, published 2022).

Assay [1] addresses T1, TfR1 in mouse liver tissue (Mus musculus, UniProt Q62351).
T1 construct: from tissue; host or cells: normal mouse liver, frozen sections
The experiment in a line: Staining of normal mouse liver frozen tissue. As to conditions: frozen tissue samples. The protocol: FIGS. 12A-12B show 3F3 FMA staining in human Huntington's disease brains and mouse tissues. In FIG. 12A, human HD and control brain tissues were fixed in 4% PFA for 24 h, perfused in 30% sucrose for 24 h, and stained with DAPI (nuclei, blue) and 3F3 FMA (red). The expression level of TfR1 is low. There was no difference between HD and control groups. In FIG. 12B, mouse liver tissues and mouse GBM tissues were fixed and stained with DAPI (nuclei, blue) and 3F3 FMA (red). 3F3 FMA was able to recognize mouse TfR1.

Assay [2] has as its target T2, transferrin receptor protein 1 (Homo sapiens, UniProt P02786).
T2 construct: First, we incubated 3F3-FMA with a cell lysate overnight; endogenous in cells; host or cells: HT-1080 (ATCC CRL-7951)
The experiment in a line: Antigen identification by immunoprecipitation-mass spectrometry. The class given is binding. The note with it: HT-1080 cell lysate. The protocol:
HT-1080 cells were seeded in DMEM (Corning 10-013-CM) and 10% Hi-FBS with 1% penicillin and streptomycin (PS) with 1% MEM Non-Essential Amino Acids Solution (100×) (Thermo Fisher Scientific 11140-076) 16 h prior to use. DMSO or 1 μM of RSL3 was added and incubated for 4 h. Following treatment, the medium was aspirated from each dish and cells were washed twice with PBS. Cells were lysed with 70 μl lysis buffer (RIPA buffer from ThermoFisher, cat. 89900, 1 mM EDTA, 1 mM PMSF, 1× Halt™ protease inhibitor cocktail from ThermoFisher, cat. 78430 and 1× Halt™ phosphatase inhibitor cocktail from ThermoFisher, cat. 78426). Unlysed cells and debris were pelleted for 15 min at 16,000×g at 4° C. The samples were incubated with 10 μg of 3F3 FMA overnight at 4° C. with shaking. […]
Trypsin digestion was performed overnight at 37° C. […] CID fragmentation was applied with 35% collision energy and resulting fragments were detected using the rapid scan rate in the ion trap. […]
Raw mass spectrometric data were analyzed using MaxQuant v.1.6.1.0 (Cox and Mann, 2008) (MaxQuant, RRID:SCR_014485) and employed Andromeda for database search (Cox et al., 2011) at default settings with a few modifications. […]

T2 sequence (P02786 whole entry): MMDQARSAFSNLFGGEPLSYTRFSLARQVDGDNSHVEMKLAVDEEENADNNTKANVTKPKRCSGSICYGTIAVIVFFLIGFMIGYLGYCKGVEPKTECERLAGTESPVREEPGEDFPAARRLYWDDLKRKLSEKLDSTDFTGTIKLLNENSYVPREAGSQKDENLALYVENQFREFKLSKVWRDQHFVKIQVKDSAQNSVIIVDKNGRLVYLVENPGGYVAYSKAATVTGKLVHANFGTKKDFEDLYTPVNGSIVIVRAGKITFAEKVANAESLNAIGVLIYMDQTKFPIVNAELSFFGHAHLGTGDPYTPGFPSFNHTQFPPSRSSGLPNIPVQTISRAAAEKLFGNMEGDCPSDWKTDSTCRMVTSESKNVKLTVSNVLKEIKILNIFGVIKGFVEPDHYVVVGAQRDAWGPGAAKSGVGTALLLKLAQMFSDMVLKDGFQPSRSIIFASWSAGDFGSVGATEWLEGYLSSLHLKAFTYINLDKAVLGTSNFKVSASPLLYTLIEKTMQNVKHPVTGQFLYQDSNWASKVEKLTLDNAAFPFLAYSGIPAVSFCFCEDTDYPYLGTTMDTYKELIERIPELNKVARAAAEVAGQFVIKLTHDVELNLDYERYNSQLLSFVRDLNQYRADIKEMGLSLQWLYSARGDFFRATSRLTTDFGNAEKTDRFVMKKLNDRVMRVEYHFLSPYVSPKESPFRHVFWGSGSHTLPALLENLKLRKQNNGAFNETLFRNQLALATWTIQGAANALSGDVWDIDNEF
T1 sequence (Q62351 whole entry): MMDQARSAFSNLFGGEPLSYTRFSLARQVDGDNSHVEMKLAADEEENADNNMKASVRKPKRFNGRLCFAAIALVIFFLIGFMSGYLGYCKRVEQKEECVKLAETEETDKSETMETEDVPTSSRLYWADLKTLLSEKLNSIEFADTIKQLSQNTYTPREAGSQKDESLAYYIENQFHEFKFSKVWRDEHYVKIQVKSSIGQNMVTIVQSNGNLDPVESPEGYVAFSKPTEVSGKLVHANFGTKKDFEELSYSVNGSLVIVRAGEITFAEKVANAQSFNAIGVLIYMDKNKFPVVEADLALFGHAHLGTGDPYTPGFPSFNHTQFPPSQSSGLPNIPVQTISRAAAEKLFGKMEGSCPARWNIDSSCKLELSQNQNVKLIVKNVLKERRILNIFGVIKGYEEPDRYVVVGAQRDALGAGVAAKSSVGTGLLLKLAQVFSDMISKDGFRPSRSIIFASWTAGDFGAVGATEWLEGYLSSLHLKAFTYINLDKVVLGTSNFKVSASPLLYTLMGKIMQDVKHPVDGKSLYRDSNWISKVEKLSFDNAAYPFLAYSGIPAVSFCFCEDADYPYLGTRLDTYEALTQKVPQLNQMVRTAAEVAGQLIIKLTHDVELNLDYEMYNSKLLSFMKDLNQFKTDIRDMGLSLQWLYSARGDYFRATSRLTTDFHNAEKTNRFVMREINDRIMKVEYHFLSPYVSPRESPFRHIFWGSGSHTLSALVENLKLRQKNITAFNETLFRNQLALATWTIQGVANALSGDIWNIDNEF

B1: 3F3-FMA: murine monoclonal IgG1 raised against ferroptotic membrane fractions; antigen is human transferrin receptor protein 1 (TfR1) (antibody, V domains shown)
VH: EVLLQQSGTELVRPGALVKLSCKASGFNIQDLYIHWVKQRPEQGLEWIGWIDPETDNTIYDPKFQGKASITADTSSNTAYLQLSSLTSEDTAMYYCSTGLLQWYFDVWGAGTAVTVSS
VL: DIVMTQSPSSLAMSIGQKVTMRCKSSQSLLNSYNQKNCLAWYQQKPGQSPKLLLYFVSTRESGVPDRFIGSGSGTDFTLTISSVQAEDLADYFCQQHYSTPLTFGAGTKLELK
For the molecule B1, the “staining signal in normal mouse liver” value in assay [1] is on record as “robust signal”. Besides, in assay [2], the “amino acid coverage of TfR1” value stood at 53% and the “confidence identification of transferrin receptor protein 1 as target antigen” value is 63%.
